These results are taken from the Immune Epitope Database (IEDB).

For one assay, the target named is HLA-B*07:02. As to the kind of experiment: IEDB peptide-MHC binding, purified MHC/direct/fluorescence; filed as Kd, often an IC50 or EC50 that approximates it; ≥ and ≤ were set here for values at or beyond the usual limits of such assays.
Another assay has as its target HLA-B*44:02. The assay is described as above. Conditions: source organism: Giardia lamblia ATCC 50803.
The target in another assay is HLA-B*40:01. The description is as above.
The target of another assay is HLA-B*27:05. Described as above.
The target of a further assay is HLA-B*58:01. The assay is described as above.
Another assay has as its target HLA-A*24:02. Described as above.
Another assay concerns the target HLA-A*02:01. The assay is described as above.
The target in another assay is HLA-B*15:09. The assay is described as above.
The target of another assay is HLA-A*31:01. Described as above.
For another assay, the target named is HLA-B*15:01. Described as above.
The target in another assay is HLA-A*69:01. The assay is described as above.
Another assay concerns the target HLA-A*11:01. Described as above.
A further assay addresses HLA-B*08:02. The description is as above. The note with it: source organism: Giardia lamblia ATCC 50803.
Another assay deals with HLA-A*01:01. The description is as above.
Another assay addresses HLA-A*03:01. The description is as above.
The target in another assay is HLA-B*15:02. As to the kind of experiment: IEDB peptide-MHC binding, purified MHC/competitive/fluorescence; filed as Kd, often an IC50 or EC50 that approximates it; ≥ and ≤ were set here for values at or beyond the usual limits of such assays.
In the next assay the target is HLA-A*24:03. As to the kind of experiment: IEDB peptide-MHC binding, purified MHC/direct/fluorescence; filed as Kd, often an IC50 or EC50 that approximates it; ≥ and ≤ were set here for values at or beyond the usual limits of such assays. The note with it: source organism: Salmonella enterica subsp. enterica serovar Berta.
A further assay deals with HLA-A*26:01. The assay is described as above.
In another assay the target is HLA-B*27:03. The description is as above. Conditions: source organism: Salmonella enterica subsp. enterica serovar Berta.
The target in a further assay is HLA-B*51:01. The description is as above. The note with it: source organism: Salmonella enterica subsp. enterica serovar Berta.
Another assay addresses HLA-A*29:02. Described as above. The note with it: source organism: Salmonella enterica subsp. enterica serovar Berta.
A further assay addresses HLA-A*02:19. The assay is described as above. The note with it: source organism: Salmonella enterica subsp. enterica serovar Berta.
In the next assay the target is HLA-A*68:02. Described as above. Conditions: source organism: Salmonella enterica subsp. enterica serovar Berta.
The next assay has as its target HLA-A*23:01. The description is as above. The note with it: source organism: Salmonella enterica subsp. enterica serovar Berta.
The target in assay [1] is HLA-B*46:01. Described as above.
The next assay has as its target HLA-A*02:03. The assay is described as above. The note with it: source organism: Salmonella enterica subsp. enterica serovar Berta.
Another assay has as its target HLA-A*02:12. The description is as above. The note with it: source organism: Salmonella enterica subsp. enterica serovar Berta.
The target of the next assay is HLA-B*57:01. The description is as above. Conditions: source organism: Salmonella enterica subsp. enterica serovar Berta.
The next assay has as its target HLA-A*02:11. Described as above. Conditions: source organism: Salmonella enterica subsp. enterica serovar Berta.
Another assay has as its target HLA-B*15:17. Described as above. The note with it: source organism: Salmonella enterica subsp. enterica serovar Berta.
A further assay addresses HLA-A*02:16. Described as above. The note with it: source organism: Salmonella enterica subsp. enterica serovar Berta.
In another assay the target is HLA-B*18:01. The assay is described as above. Conditions: source organism: Salmonella enterica subsp. enterica serovar Berta.
The target of the next assay is HLA-B*08:01. The description is as above. The note with it: source organism: Influenza A virus (A/duck/Mongolia/47/2001(H7N1)).
The next assay has as its target HLA-C*14:02. Described as above. The note with it: source organism: Bacillus anthracis str. A2012.
A further assay has as its target HLA-C*12:03. The description is as above. Conditions: source organism: Bacillus anthracis str. A2012.
A further assay concerns the target HLA-C*03:03. The assay is described as above. The note with it: source organism: Bacillus anthracis str. A2012.
The next assay concerns the target HLA-C*15:02. Described as above. The note with it: source organism: Bacillus anthracis str. A2012.
The target in a further assay is HLA-C*07:02. The assay is described as above. Conditions: source organism: Bacillus anthracis str. A2012.
A further assay addresses HLA-C*06:02. The assay is described as above. The note with it: source organism: Bacillus anthracis str. A2012.
Assay [2] concerns the target HLA-B*46:01. Kind of assay: IEDB peptide-MHC binding, purified MHC/competitive/fluorescence; filed as Kd, often an IC50 or EC50 that approximates it; ≥ and ≤ were set here for values at or beyond the usual limits of such assays. Conditions: source organism: Bacillus anthracis str. A2012.
Where [3] appears, read: source organism: Giardia lamblia ATCC 50803.
[4] abbreviates: source organism: Salmonella enterica subsp. enterica serovar Berta.
[5] abbreviates: source organism: Influenza A virus(A/swine/Henan/3/2004(H9N2)).
Where [6] appears, read: source organism: Influenza A virus (A/duck/Mongolia/47/2001(H7N1)).

By Kd is commonly meant a measure of binding affinity in units of concentration.

Regarding DEKPKVMEG, the Kd with HLA-B*07:02 (setting [3]), with HLA-B*44:02, with HLA-B*40:01 (setting [3]), with HLA-B*27:05 (setting [3]), in the assay with HLA-B*58:01 (setting [3]) and with HLA-A*24:02 (setting [3]) was ≥ 20 µM in each case. Also, the Kd in the assay with HLA-A*02:01 (setting [3]), in the assay with HLA-B*15:09 (setting [3]), with HLA-A*31:01 (setting [3]), with HLA-B*15:01 (setting [3]), in the assay with HLA-A*69:01 (setting [3]) and with HLA-A*11:01 (setting [3]) was ≥ 20 µM throughout. Moreover, the Kd with HLA-B*08:02, with HLA-A*01:01 (setting [3]) and with HLA-A*03:01 (setting [3]) was ≥ 20 µM each time.
For FLRSSSAIE, the Kd with HLA-B*15:02 (source organism: Coxiella burnetii Dugway 5J108-111) is ≥ 20 µM.
GQRDTDVPY: in the assay with HLA-B*15:02 (source organism: Yersinia enterocolitica subsp. enterocolitica 8081), the Kd is 1.24 µM.
For HQDDGQPRL, the Kd with HLA-A*24:03, with HLA-A*26:01 (setting [4]), with HLA-B*27:03, with HLA-B*51:01, with HLA-A*29:02 and in the assay with HLA-A*02:19 was ≥ 20 µM each time. In addition, the Kd with HLA-A*02:01 (setting [4]), with HLA-A*68:02, with HLA-A*23:01, with HLA-B*15:01 (setting [4]), in the assay with HLA-B*46:01 [1] (setting [4]) and with HLA-A*69:01 (setting [4]) was ≥ 20 µM each time. In addition, the Kd with HLA-A*02:03, with HLA-A*02:12, in the assay with HLA-B*57:01, with HLA-A*02:11, in the assay with HLA-B*15:17 and with HLA-A*03:01 (setting [4]) was ≥ 20 µM each time. The Kd with HLA-A*02:16 and in the assay with HLA-B*18:01 was ≥ 20 µM each time.
With NESGRLIDF, the Kd in the assay with HLA-A*26:01 (setting [5]) is ≥ 20 µM; with HLA-B*07:02 (setting [6]), ≥ 20 µM; with HLA-B*40:01 (source organism: Influenza A virus (A/Puerto Rico/8/34/Mount Sinai(H1N1))) it was ≥ 5 µM; in the assay with HLA-B*27:05 (setting [6]), ≥ 20 µM; with HLA-B*58:01 (setting [6]), ≥ 20 µM; with HLA-A*24:02 (setting [6]) it was ≥ 20 µM. For the same sequence, the Kd in the assay with HLA-B*08:01, with HLA-A*02:01 (setting [6]), with HLA-B*15:09 (setting [5]), in the assay with HLA-A*31:01 (setting [6]), with HLA-B*15:01 (setting [6]) and with HLA-B*46:01 [1] (setting [6]) was ≥ 20 µM each time. Also, the Kd with HLA-A*69:01 (setting [6]), with HLA-A*11:01 (setting [6]), in the assay with HLA-A*01:01 (setting [6]) and in the assay with HLA-A*03:01 (setting [6]) was ≥ 20 µM each time.
Consider SMFDSWGPF, for which the Kd with HLA-C*14:02 is 0.185 µM; with HLA-C*12:03, 0.102 µM; with HLA-C*03:03 it was ≥ 20 µM; with HLA-C*15:02, ≥ 20 µM; with HLA-C*07:02, 0.224 µM; with HLA-C*06:02, ≥ 20 µM. Moreover, the Kd was found to be 0.0043 µM with HLA-B*46:01 [2] and 0.005 µM with HLA-B*15:02 (source organism: Bacillus anthracis str. A2012).
As to WIGQTSHGW, the Kd with HLA-B*15:02 (source organism: Vibrio cholerae) is ≥ 20 µM.
